Biological target: recombinant human a7 nicotinic acetylcholine receptor expressed in Xenopus oocytes (human) (UniProt P36544)
Assay: cell-based or functional assay

Sequence of recombinant human a7 nicotinic acetylcholine receptor expressed in Xenopus oocytes (human) (P36544 23-502): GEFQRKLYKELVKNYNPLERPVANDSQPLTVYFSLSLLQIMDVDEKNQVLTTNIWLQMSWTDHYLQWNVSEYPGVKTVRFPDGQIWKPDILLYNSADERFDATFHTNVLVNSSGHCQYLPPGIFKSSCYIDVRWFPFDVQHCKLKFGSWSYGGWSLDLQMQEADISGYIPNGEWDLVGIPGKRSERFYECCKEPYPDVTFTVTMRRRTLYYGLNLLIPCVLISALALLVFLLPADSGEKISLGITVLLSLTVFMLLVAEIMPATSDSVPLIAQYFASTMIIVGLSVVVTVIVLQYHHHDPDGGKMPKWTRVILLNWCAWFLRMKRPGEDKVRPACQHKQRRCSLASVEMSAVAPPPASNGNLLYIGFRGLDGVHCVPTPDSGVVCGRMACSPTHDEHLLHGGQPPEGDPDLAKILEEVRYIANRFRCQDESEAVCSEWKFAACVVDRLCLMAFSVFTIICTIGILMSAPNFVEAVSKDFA

- EC50 of acetylcholine on the receptor after 2.5 min exposure to 200 pM SLURP-1 (FIG. 5C; control 178 µM; n=6 for each data point): 68 µM
- EC50 of acetylcholine on the receptor after SLURP-1 treatment (FIG. 5B; control 175 µM): 68 µM
- increase of the amplitude of acetylcholine-evoked macroscopic currents at 200 pM SLURP-1, compared with control (two-electrode voltage clamp, oocytes; n=6): 421%
- increase of the amplitude of acetylcholine-evoked macroscopic currents at 20 nM SLURP-1, compared with control (two-electrode voltage clamp, oocytes; n=4): 1210%
Substance: recombinant SLURP-1 with C-terminal myc tag and His6 tag (highly purified SLURP-1) (from UniProt P55000 23-103) (ligand)

Reference: patent US20050004025A1
